Assay results: US20230265179A1 (TWIST BIOSCIENCE, published 2023)
Substitutions are numbered along the chain they refer to.

T1: CD40L (UniProt P29965 1-261, limits assumed)
T1 construct: whole, on cells; also called cytokine over-expressing Expi293 cells (CD40L)
T1 sequence (looked up): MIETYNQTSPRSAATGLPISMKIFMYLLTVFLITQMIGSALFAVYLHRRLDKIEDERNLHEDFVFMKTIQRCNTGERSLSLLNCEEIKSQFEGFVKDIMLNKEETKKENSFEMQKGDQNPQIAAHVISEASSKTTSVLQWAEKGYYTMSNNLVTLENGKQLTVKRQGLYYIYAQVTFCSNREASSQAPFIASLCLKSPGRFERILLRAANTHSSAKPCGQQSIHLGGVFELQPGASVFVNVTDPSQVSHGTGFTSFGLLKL

B1: CD40L-220 (antibody, V domains shown)
VH: EVQLLESGGGLVQPGGSLRLSCAASGGYNFRDYMHWVRQAPGKGLEWVSSITSEGGSTYYADSVKGRFTISRDNSKNTLYLQMNSLRAEDTAVYYCAKDLGQGFDYWGQGTLVTVSS
VL: DIQMTQSPSSLSASVGDRVTITCRTSQDIGNYLNWYQQKPGKAPKLLIYGTSYRYSGVPSRFSGSGSGTDFTLTISSLQPEDFATYYCQPSFVFPYTFGQGTKVEIK
B2: CD40L-241 (antibody, V domains shown)
VH: B1 VH with T52S, S53D, E54H, G56F, S57N, D99N
VL: DIQMTQSPSSLSASVGDRVTITCRTSQDISNYLNWYQQKPGKAPKLLIYAASNVESGVPSRFSGSGSGTDFTLTISSLQPEDFATYYCASRNGWNHVVFGQGTKVEIK
B3: CD40L-250 (antibody, V domains shown)
VH: EVQLLESGGGLVQPGGSLRLSCAASGFIFQWYDMGWVRQAPGKGLEWVSSIDWRGLLTYYADSVKGRFTISRDNSKNTLYLQMNSLRAEDTAVYYCAKAYYGGFDYWGQGTLVTVSS
VL: not shown
B4: CD40L-266 (antibody, V domains shown)
VH: EVQLLESGGGLVQPGGSLRLSCAASGGYNFRDYMHWVRQAPGKGLEWVGKINYAGNTDYNDSVKGRFTISRDNSKNTLYLQMNSLRAEDTAVYYCAKNLGQGFDYWGQGTLVTVSS
VL: DIQMTQSPSSLSASVGDRVTITCRASQNIRSYLNWYQQKPGKAPKLLIYSASVLQSGVPSRFSGSGSGTDFTLTISSLQPEDFATYYCKSRAYSGNLVEFGQGTKVEIK
B5: CD40L-319 (antibody, V domains shown)
VH: EVQLLESGGGLVQPGGSLRLSCAASGFTFGHYAMGWVRQAPGKGLEWVSAISGSGAGTYYADSVKGRFTISRDNSKNTLYLQMNSLRAEDTAVYYCATHDSPYYYIDVWGQGTLVTVSS
VL: DIQMTQSPSSLSASVGDRVTITCRASQSIYTYLNWYQQKPGKAPKLLIYTASALQTGVPSRFSGSGSGTDFTLTISSLQPEDFATYYCQQSYRIPLTFGGGTKVEIK
B6: CD40L-321 (antibody, V domains shown)
VH: EVQLLESGGGLVQPGGSLRLSCAASGFSFRSYAMSWVRQAPGKGLEWVSIISGSGGSTSYADSVKGRFTISRDNSKNTLYLQMNSLRAEDTAVYYCARYYFGLSSNWFNPWGQGTLVTVSS
VL: B5 VL with S14Y, Y30G, T31I, Y32H, T50G, A53R, R93S, I94A
B7: CD40L-339 (antibody, V domains shown)
VH: EVQLLESGGGLVQPGGSLRLSCAASGFTFSNYAMSWVRQAPGKGLEWVSAITGSGSTTYYADSVKGRFTISRDNSKNTLYLQMNSLRAEDTAVYYCARAHDYDSMLMDYWGQGTLVTVSS
VL: B5 VL with Y30G, Y32F, T50G, A51T, A53N, T56S, S91G, I94T, G100Q
B8: CD40L-338 (antibody, V domains shown)
VH: EVQLLESGGGLVQPGGSLRLSCAASGFTFGSFAMNWVRQAPGKGLEWVSAITGGGGSTYYADSVKGRFTISRDNSKNTLYLQMNSLRAEDTAVYYCAHGLAWRWGFDYWGQGTLVTVSS
VL: DIQMTQSPSSLSASVGDRVTITCRASQNIDRYLNWYQQKPGKAPKLLIYAASALQSGVPSRFSGSGSGTDFTLTISSLQPEDFATYYCQQSYSILPVTFGQGTKVEIK
B9: CD40L-379 (antibody, V domains shown)
VH: B8 VH
VL: B8 VL with Q101G
B10: CD40L-216 (antibody, V domains shown)
VH: EVQLLESGGGLVQPGGSLRLSCAASGFDFSDYEMSWVRQAPGKGLEWVSSITSEGGSTYYADSVKGRFTISRDNSKNTLYLQMNSLRAEDTAVYYCAKPDQFFDYWGQGTLVTVSS
VL: DIQMTQSPSSLSASVGDRVTITCRASQPIAYFLSWYQQKPGKAPKLLIYENNNRPSGVPSRFSGSGSGTDFTLTISSLQPEDFATYYCQPSFLYPYTFGQGTKVEIK
B11: CD40L-233 (antibody, V domains shown)
VH: B10 VH with D28T, S30E, E33Q, S35G, Q101K, F102D
VL: DIQMTQSPSSLSASVGDRVTITCRASQFIGRYFNWYQQKPGKAPKLLIYGATILADGVPSRFSGSGSGTDFTLTISSLQPEDFATYYCQQNNNWPTTFGQGTKVEIK
B12: CD40L-218 (antibody, V domains shown)
VH: B10 VH with Q101V, F102L
VL: DIQMTQSPSSLSASVGDRVTITCRTSQSLSSYLHWYQQKPGKAPKLLIYQNDKRPSGVPSRFSGSGSGTDFTLTISSLQPEDFATYYCKQSYDLFTFGQGTKVEIK
B13: CD40L-217 (antibody, V domains shown)
VH: B10 VH with D28T, S30A, D31S, S35T, Q101K, F102I
VL: DIQMTQSPSSLSASVGDRVTITCKASENVDTYVSWYQQKPGKAPKLLIYDDIDRPSGVPSRFSGSGSGTDFTLTISSLQPEDFATYYCQQSYSSPRTFGQGTKVEIK
B14: CD40L-219 (antibody, V domains shown)
VH: B10 VH
VL: B1 VL with T25A, D28S, G30S, Y32N, P90Q, S91T, F92Y, V93D, F94T, Y96L
B15: CD40L-239 (antibody, V domains shown)
VH: EVQLLESGGGLVQPGGSLRLSCAASGFIFQWYDMGWVRQAPGKGLEWVSSINDRGDQTYYADSVKGRFTISRDNSKNTLYLQMNSLRAEDTAVYYCARVAFSGSFDYWGQGTLVTVSS
VL: DIQMTQSPSSLSASVGDRVTITCRASQSILSYLNWYQQKPGKAPKLLIYFTSTLAAGVPSRFSGSGSGTDFTLTISSLQPEDFATYYCQQSYSSAPTFGQGTKVEIK
B16: CD40L-342 (antibody, V domains shown)
VH: B7 VH with N31K, S35N, T52S, S56E, T57S
VL: B5 VL with Y30S, T31R, T50A, A51E, A53T, T56S, R93T, G100Q
B17: CD40L-343 (antibody, V domains shown)
VH: B7 VH with N31K, S35N, T52S, S56E, T57S
VL: DIQMTQSPSSLSASVGDRVTITCRASQYINNYLNWYQQKPGKAPKLLIYASSTLQRGVPSRFSGSGSGTDFTLTISSLQPEDFATYYCQQSFSTPITFGQGTKVEIK
B18: CD40L-344 (antibody, V domains shown)
VH: B7 VH with N31K, S35N, T52S, S56E, T57S
VL: B5 VL with Q27E, Y30T, A53G, T56S, R93T, I94V, L96I, G100Q
B19: CD40L-330 (antibody, V domains shown)
VH: B7 VH with N31K, S35N, T52S, S56E, T57S
VL: B5 VL with S28T, Y30G, T31S, T50S, A53T, R93S, I94P

biological target: T1, CD40L; assay: flow cytometry, 100 nM IgG, CD40L over-expressing Expi293 cells over parent Expi293 cells
Method: All incubations and washes were in buffer containing PBS+1% BSA. MFI Ratio is defined by the mean fluorescence intensity (MFI) of the cytokine over-expressing Expi293 cell over the Expi293 parent cell. […] EC50 was calculated in GraphPad Prism.

Row | 100 nM FACS (MFI Ratio) | Binder
1 | 4.3 MFI ratio | B1
2 | 1.7 MFI ratio | B2
3 | 27.1 MFI ratio | B3
4 | 1.7 MFI ratio | B4
5 | 4.2 MFI ratio | B5
6 | 1.7 MFI ratio | B6
7 | 56.6 MFI ratio | B7
8 | 34.3 MFI ratio | B8
9 | 71.2 MFI ratio | B9
10 | 22.4 MFI ratio | B10
11 | 1.8 MFI ratio | B11
12 | 5.1 MFI ratio | B12
13 | 7.7 MFI ratio | B13
14 | 2.1 MFI ratio | B14
15 | 4.2 MFI ratio | B15
16 | 124 MFI ratio | B16
17 | 35.8 MFI ratio | B17
18 | 4.9 MFI ratio | B18
19 | 27.1 MFI ratio | B19
